Measurements from patent US20160040149A1, “Compositions Having Dicamba Decarboxylase Activity and Methods of Use” (priority 2013, published 2016).

B1: 503 (protein)
chain: MAQGKVALEEHFAIPETLNDAADFVPSEYWKELQHRLLDIQDTRLKLMDKHEIGTMILSLAAPAVQAIPDRVKAIEIARRANDFLAEEVAKRPDRFLAFAALPLQDPDAATEELQRCVNDLGFVGAMVNGFSQEGDGQTPLYYDLPQYRPFWGEVEKLDVPFYLHPRNPLPQDSRIYDGHPWLLGPTWAFAQETAVHALRLMASGLFDEHPRLNIILGHMGEGLPYMMYRIDHRIAWVKAPPDYPAKRRFMDYFLENFHITTSGNFRTQTLIDAILEIGADRILFSTDWPFENIDHAADWFNATSIAEADRVKIGRTNARRLFKLDGR
modifications: Dicamba decarboxylase variant
B2: 505 (protein)
chain: MAQGKVALEEHFAIPETLQDAADFVPSEYWKELQHRLLDIQDTRLKLMDKHEIETMILSLAAPAVQAIPDRRKAIEIARRANDFLAEEVAKRPDRFLAFAALPLQDVDAATEELQRCVNDLGFVGAMVNGFSQEGDGQTPLYYDLPQYRPFWGEVEKLDVPFYLHPRNPLPQDSRIYDGHPWLLGPTWAFAQETAVHALRLMASGLFDEHPRLNIILGHMGEGLPYMMYRIDHRIAWVKAPPDYPAKRRFMDYFLENFHITTSGNFRTQTLIDAILEIGADRILFSTDWPFENIDHAADWFNATSIAEADRVKIGRTNARRLFKLDGR
modifications: Dicamba decarboxylase variant
B3: 504 (protein)
chain: MAQGKVALEEHFAIPETLNDAADFVPSEYWKELQHRLLDIQDTRLKLMDKHEIGTMILSLAAPAVQAIPDRVKAIEIARRANDFLAEEVAKRPDRFLAFAALPLQDPDAATEELQRCVNDLGFVGAMVNGFSQEGDGQTPLYYDLPQYRPFWGEVEQLDVPFYLHPRNPLPQDSRIYDGHPWLLGPTWAFAQETAVHALRLMASGLFDEHPRLNIILGHMGEGLPYMMYRIDHRIAWVKAPPDYPAKRRFMDYFLENFHITTSGNFRTQTLIDAILEIGADRILFSTDWPFENIDHAADWFNATSIAEADRVKIGRTNARRLFKLDGR
modifications: Dicamba decarboxylase variant
B4: 507 (protein)
chain: MAQGKVALEEHFAIPETLQDAADFVPSEYWKELQHRLLDIQDTRLKLMDKHEIETMILSLAAPAVQAIPDRVKAIEIARRANDFLAEEVAKRPGRFLAFAALPLQDVDAATEELQRCVNDLGFVGAMVNGFSQEGDGQTPLYYDLPQYRPFWGEVEKLDVPFYLHPRNPLPQDSRIYDGHPWLLGPTWAFAQETAVHALRLMASGLFDEHPRLNIILGHMGEGLPYMMYRIDHRIAWVKAPPDYPAKRRFMDYFLENFHITTSGNFRTQTLIDAILEIGADRILFSTDWPFENIDHAADWFNATSIAEADRVKIGRTNARRLFKLDGR
modifications: Dicamba decarboxylase variant
B5: 508 (protein)
chain: MAQGKVALEEHFAIPETLNDAAGFVPSEYWKELQHRLLDIQDTRLKLMDKHEIETMILSLAAPAVQAIPDRVKAIEIARRANDFLAEEVAKRPDRFLAFAALPLQDPDAATEELQRCVNDLGFVGALVNGFSQEGDGQTPLYYDLPQYRPFWGEVEKLDVPFYLHPRNPLPQDSRIYDGHPWLLGPTWAFAQETAVHALRLMASGLFDEHPRLNIILGHMGEGLPYMMYRIDHRIAWVKAPPDYPAKRRFMDYFLENFHITTSGNFRTQTLIDAILEIGADRILFSTDWPFENIDHAADWFNATSIAEADRVKIGRTNARRLFKLDGR
modifications: Dicamba decarboxylase variant
B6: 506 (protein)
chain: MAQGKVALEEHFAIPETLNDAADFVPSEYLKELQHRLLDIQDTRLKLMDKHEIETMILSLAAPAVQAIPDRVKAIEIARRANDFLAEEVAKRPDRFLAFAALPLQDPDAATEELQRCVNDLGFVGAMVNGFSQEGDGQTPLYYDLPQYRPFWGEVEKLDVPFYLHPRNPLPQDSRIYDGHPWLLGPTWAFAQETAVHALRLMASGLFDEHPRLNIILGHMGEGLPYMMYRIDHRIAWVKAPPDYPAKRRFMDYFLENFHITTSGNFRTQTLIDAILEIGADRILFSTDWPFENIDHAADWFNATSIAEADRVKIGRTNARRLFKLDGR
modifications: Dicamba decarboxylase variant
B7: 500 (protein)
chain: MAQGKVALEEHFAIPETLNDAAGFVPSEYWKELQHRLLDIQDQRLRLMDKHEIETMILSLAAPAVQAIGDRVKAIEIARRANDFLAEEVAKRPDRFLAFAALPMQDVDAATEELQRCVRDLGFVGAMVNGFSQEGDGQTPLYYDLPQYRPFWKEVEKLDVPFYLHPRNPLPQDSRIYDGHPWLLGPTWAFAQETAVHALRLMASGLFDEHPGLNIILGHLGEGLPYMMYRIDHRIAWVKAPPDYPAKRRFMDYFLENFHITTSGNFRTQTLIDAILEIGADRILFSTDWPFENIDHAAAWFNATSIAEADRVKIGRTNARRLFKLDGR
modifications: Dicamba decarboxylase variant
B8: 501 (protein)
chain: MAQGKVALEEHFAIPETLQDAADFVPSEYWKELQHRLLDIQDQRLKLMDKHEIETMILSLAAPAVQSIPDRVKAIEIARRANDFLAEEVAKRPDRFLAFAALPMQDVDAATEELQRCVRDLGFVGAMVNGFSQEGDGQTPLYYDLPQYRPFWKEVEKLDVPFYLHPRNPLPQDSRIYDGHPWLLGPTWAFAQETAVHALRLMASGLFDEHPGLNIILGHMGEGLPYMMYRIDHRIAWVKAPPDYPAKRRFMDYFLENFHITTSGNFRTQTLIDAILEIGADRILFSTDWPFENIDHAADWFNATSIAEADRVKIGRTNARRLFKLDGR
modifications: Dicamba decarboxylase variant
B9: 502 (protein)
chain: MAQGKVALEEHFAIPETLNDAADFVPSEYWKELQHRLLDIQDQRLRLMDKHEIETTILSLAAPAVQAIGDRVKAIEIARRANDFLAEEVAKRPDRFLAFAALPLQDVDAATEELQRCVNDLGFVGAMVNGFSQEGDGQTPLYYDLPQYRPFWKEVEKLDVPFYLHPRNPLPQDSRIYDGHPWLLGPTWAFAQETAVHALRLMASGLFDEHPRLNIILGHMGEGLPYMMYRIDHRIAWVKAPPDYPAKRRFMDYFLENFHITTSGNFRTQTLIDAILEIGADRILFSTDWPFENIDHAADWFNATSIAEADRVKIGRTNARRLFKLDGR
modifications: Dicamba decarboxylase variant
B10: 510 (protein)
chain: MAQGKVALEEHFAIPETLQDAAGFVPGDYWKELQHRLLDIQDTRLKEMDRHEIGTMVLSLAAPAVQAIPDRRKAIEIARRANDFLAEEVAKRPDRFLAFAALPLQDVDAATEELQRCVNDLGFVGAMVNGFSQEGDGQTPLYYDLPQYRPFWGEVEKLDVPFYLHPRNPLPQDARIYDGHPWLLGPTWAFAQETAVHALRLMASGLFDEHPRLNIILGHMGEGLPYMMYRIDHRIAWVKAPPDYPAKRRFMDYFLENFHITTSGNFRTQTLIDAILEIGADRILFSTDWPFENIDHAADWFAATSIAEADRVKIGRTNARRLFKLDGS
modifications: Dicamba decarboxylase variant
B11: 511 (protein)
chain: MAQGKVALEEHFAIPETLQDAAGFVPGDYWKELQHRLLDIQDTRLKEMDKHGIGTMVLSLAAPAVQAIPDRRQAIELARRANDFLAEEVAKRPDRFLAFAALPLQDVDAATEELQRCVNDLGFVGAMVNGFSQEGDGQTPLYYDLPQYRPFWGEVEKLDVPFYLHPRNPLPQDSRIYDGHPWLLGPTWAFAQETAVHALRLMASGLFDEHPRLNIILGHMGEGLPYMMYRIDHRIAWVKAPPDYPAKRRFMDYFLENFHITTSGNFRTQTLIDAILEIGADRILFSTDWPFENIDHAADWFNATSIAEADRVKIGRTNARRLFKLDGR
modifications: Dicamba decarboxylase variant
B12: 512 (protein)
chain: MAQGKVALEEHFAIPETLQDAAGFVPGDYWKELQHRLLDIQDTRLKEMDKHGIGTMVLSLAAPAVQAIPDRRKAIEIARRANDFLAEEVAKRPDRFLAFAALPLQDVDAATEELQRCVADLGFVGAMVNGFSQEGDGQTPLYYDLPQYRPFWGEVEKLDVPFYLHPRNPLPQDSRIYDGHPWLLGPTWAFAQETAVHALRLMASGLFDEHPRLNIILGHMGEGLPYMMYRIDHRIAWVKAPPDYPAKRRFMDYFLENFHITTSGNFRTQTLIDAILEIGADRILFSTDWPFENIDHAADWFNATSIADADRDKIGRTNARRLFKLDGR
modifications: Dicamba decarboxylase variant
B13: 513 (protein)
chain: MAQGKVALEEHFAIPETLQDAAGFVPGDYWKELQHRLLDIQDTRLKEMDKHEIGTMVLSLAAPAVQAIPDRRQAIELARRANDFLAEEVAKRPDRFLAFAALPLQDVDAATEELQRCVNDLGFVGAMVNGFSQEGDGQTPLYYDLPQYRPFWGEVEKLDVPFYLHPRNPLPQDSRIYDGHPWLLGPTWAFAQETAVHALRLMASGLFDEHPRLNIILGHMGEGLPYMMYRIDHRIAWVKAPPDYPAKRRFMDYFLENFHITTSGNFRTQTLIDAILEIGADRILFSTDWPFENIDHAADWFNATSIAEADRVKIGRTNARRLFKLDGR
modifications: Dicamba decarboxylase variant
B14: 509 (protein)
chain: MAQGKVALEEHFAIPETLQDAAGFVPGDYWKELQHRLLDIQDTRLKEMDKHEIGTMILSLAAPAVQAIPDRRKAIEIARRANDFLAEEVAKRPDRFLAFAALPLQDVDAATEELQRCVNDLGFVGAMVNGFSQEGDGQTPLYYDLPQYRPFWGEVEKLDVPFYLHPRNPLPQDSRIYDGHPWLLGPTWAFAQETAVHALRLMASGLFDEHPRLNIILGHMGEGLPYMMYRIDHRIAWVKAPPDYPAKRRFMDYFLENFHITTSGNFRTQTLIDAILEIGADRILFSTDWPFENIDHAADWFNATSIAEADRVKIGRTNARRLFKLDGR
modifications: Dicamba decarboxylase variant

Assay: DNA shuffling libraries: 14CO2 capturing assay in 384-well format, fold activity of backbone (Megatable 2)
Settings: relative to backbone SEQ ID NO: 380 (DDEC0301)

Molecule | Fold Activity [fold]
B1 | 2.1
B2 | 2.0
B3 | 2.3
B4 | 1.8
B5 | 1.0
B6 | 1.1
B7 | 0.9
B8 | 1.5
B9 | 1.0

Same assay, conditions: relative to backbone SEQ ID NO: 509 (DDEC0810)

Molecule | Fold Activity [fold]
B10 | 1.0
B11 | 1.3
B12 | 1.2
B13 | 1.2
B14 | 1.0
